# Source: patent US20110263454A1, “Methods of Identifying Functional Characteristics of Promoters, Transcription Modifying Proteins and Transcription Modulating Agents” (Salk Institute for Biological Studies, priority 2008, published 2011)
# B1: CTF1: COUP-TF1 (NR2F1), cDNA driver (protein, UniProt P10589 1-423, looked up)
# COUP transcription factor 1: MAMVVSSWRDPQDDVAGGNPGGPNPAAQAARGGGGGAGEQQQQAGSGAPHTPQTPGQPGAPATPGTAGDKGQGPPGSGQSQQHIECVVCGDKSSGKHYGQFTCEGCKSFFKRSVRRNLTYTCRANRNCPIDQHHRNQCQYCRLKKCLKVGMRREAVQRGRMPPTQPNPGQYALTNGDPLNGHCYLSGYISLLLRAEPYPTSRYGSQCMQPNNIMGIENICELAARLLFSAVEWARNIPFFPDLQITDQVSLLRLTWSELFVLNAAQCSMPLHVAPLLAAAGLHASPMSADRVVAFMDHIRIFQEQVEKLKALHVDSAEYSCLKAIVLFTSDACGLSDAAHIESLQEKSQCALEEYVRSQYPNQPSRFGKLLLRLPSLRTVSSSVIEQLFFVRLVGKTPIETLIRDMLLSGSSFNWPYMSIQCS
# B2: ERR3: Estrogen Related Receptor γ (NR3B3, ERRg), cDNA driver (protein, UniProt P62508 1-458, looked up)
# Estrogen-related receptor …: MDSVELCLPESFSLHYEEELLCRMSNKDRHIDSSCSSFIKTEPSSPASLTDSVNHHSPGGSSDASGSYSSTMNGHQNGLDSPPLYPSAPILGGSGPVRKLYDDCSSTIVEDPQTKCEYMLNSMPKRLCLVCGDIASGYHYGVASCEACKAFFKRTIQGNIEYSCPATNECEITKRRRKSCQACRFMKCLKVGMLKEGVRLDRVRGGRQKYKRRIDAENSPYLNPQLVQPAKKPYNKIVSHLLVAEPEKIYAMPDPTVPDSDIKALTTLCDLADRELVVIIGWAKHIPGFSTLSLADQMSLLQSAWMEILILGVVYRSLSFEDELVYADDYIMDEDQSKLAGLLDLNNAILQLVKKYKSMKLEKEEFVTLKAIALANSDSMHIEDVEAVQKLQDVLHEALQDYEAGQHMEDPRRAGKMLMTLPLLRQTSTKAVQHFYNIKLEGKVPMHKLFLEMLEAKV
# B3: CTF3: COUP-TF3 (NR2F6), cDNA driver (protein, UniProt P10588 1-404, looked up)
# Nuclear receptor subfamily 2 …: MAMVTGGWGGPGGDTNGVDKAGGYPRAAEDDSASPPGAASDAEPGDEERPGLQVDCVVCGDKSSGKHYGVFTCEGCKSFFKRSIRRNLSYTCRSNRDCQIDQHHRNQCQYCRLKKCFRVGMRKEAVQRGRIPHSLPGAVAASSGSPPGSALAAVASGGDLFPGQPVSELIAQLLRAEPYPAAAGRFGAGGGAAGAVLGIDNVCELAARLLFSTVEWARHAPFFPELPVADQVALLRLSWSELFVLNAAQAALPLHTAPLLAAAGLHAAPMAAERAVAFMDQVRAFQEQVDKLGRLQVDSAEYGCLKAIALFTPDACGLSDPAHVESLQEKAQVALTEYVRAQYPSQPQRFGRLLLRLPALRAVPASLISQLFFMRLVGKTPIETLIRDMLLSGSTFNWPYGSGQ
# B4: hMR: Mineralocorticoid Receptor (NR3C2, MR), cDNA driver (protein, UniProt P08235 1-984, looked up)
# Mineralocorticoid receptor: METKGYHSLPEGLDMERRWGQVSQAVERSSLGPTERTDENNYMEIVNVSCVSGAIPNNSTQGSSKEKQELLPCLQQDNNRPGILTSDIKTELESKELSATVAESMGLYMDSVRDADYSYEQQNQQGSMSPAKIYQNVEQLVKFYKGNGHRPSTLSCVNTPLRSFMSDSGSSVNGGVMRAVVKSPIMCHEKSPSVCSPLNMTSSVCSPAGINSVSSTTASFGSFPVHSPITQGTPLTCSPNVENRGSRSHSPAHASNVGSPLSSPLSSMKSSISSPPSHCSVKSPVSSPNNVTLRSSVSSPANINNSRCSVSSPSNTNNRSTLSSPAASTVGSICSPVNNAFSYTASGTSAGSSTLRDVVPSPDTQEKGAQEVPFPKTEEVESAISNGVTGQLNIVQYIKPEPDGAFSSSCLGGNSKINSDSSFSVPIKQESTKHSCSGTSFKGNPTVNPFPFMDGSYFSFMDDKDYYSLSGILGPPVPGFDGNCEGSGFPVGIKQEPDDGSYYPEASIPSSAIVGVNSGGQSFHYRIGAQGTISLSRSARDQSFQHLSSFPPVNTLVESWKSHGDLSSRRSDGYPVLEYIPENVSSSTLRSVSTGSSRPSKICLVCGDEASGCHYGVVTCGSCKVFFKRAVEGQHNYLCAGRNDCIIDKIRRKNCPACRLQKCLQAGMNLGARKSKKLGKLKGIHEEQPQQQQPPPPPPPPQSPEEGTTYIAPAKEPSVNTALVPQLSTISRALTPSPVMVLENIEPEIVYAGYDSSKPDTAENLLSTLNRLAGKQMIQVVKWAKVLPGFKNLPLEDQITLIQYSWMCLSSFALSWRSYKHTNSQFLYFAPDLVFNEEKMHQSAMYELCQGMHQISLQFVRLQLTFEEYTIMKVLLLLSTIPKDGLKSQAAFEEMRTNYIKELRKMVTKCPNNSGQSWQRFYQLTKLLDSMHDLVSDLLEFCFYTFRESHALKVEFPAMLVEIISDQLPKVESGNAKPLYFHRK
# B5: CTF2: COUP-TF2 (NR2F2), cDNA driver (protein, UniProt P24468 1-414, looked up)
# COUP transcription factor 2: MAMVVSTWRDPQDEVPGSQGSQASQAPPVPGPPPGAPHTPQTPGQGGPASTPAQTAAGGQGGPGGPGSDKQQQQQHIECVVCGDKSSGKHYGQFTCEGCKSFFKRSVRRNLSYTCRANRNCPIDQHHRNQCQYCRLKKCLKVGMRREAVQRGRMPPTQPTHGQFALTNGDPLNCHSYLSGYISLLLRAEPYPTSRFGSQCMQPNNIMGIENICELAARMLFSAVEWARNIPFFPDLQITDQVALLRLTWSELFVLNAAQCSMPLHVAPLLAAAGLHASPMSADRVVAFMDHIRIFQEQVEKLKALHVDSAEYSCLKAIVLFTSDACGLSDVAHVESLQEKSQCALEEYVRSQYPNQPTRFGKLLLRLPSLRTVSSSVIEQLFFVRLVGKTPIETLIRDMLLSGSSFNWPYMAIQ
# B6: ERR2: Estrogen Related Receptor β (NR3B2, ERRb), cDNA driver (protein, UniProt O95718 1-433, looked up)
# Steroid hormone receptor ERR2: MSSDDRHLGSSCGSFIKTEPSSPSSGIDALSHHSPSGSSDASGGFGLALGTHANGLDSPPMFAGAGLGGTPCRKSYEDCASGIMEDSAIKCEYMLNAIPKRLCLVCGDIASGYHYGVASCEACKAFFKRTIQGNIEYSCPATNECEITKRRRKSCQACRFMKCLKVGMLKEGVRLDRVRGGRQKYKRRLDSESSPYLSLQISPPAKKPLTKIVSYLLVAEPDKLYAMPPPGMPEGDIKALTTLCDLADRELVVIIGWAKHIPGFSSLSLGDQMSLLQSAWMEILILGIVYRSLPYDDKLVYAEDYIMDEEHSRLAGLLELYRAILQLVRRYKKLKVEKEEFVTLKALALANSDSMYIEDLEAVQKLQDLLHEALQDYELSQRHEEPWRTGKLLLTLPLLRQTAAKAVQHFYSVKLQGKVPMHKLFLEMLEAKV
# B7: Erb: Estrogen Receptor β (NR3A2, ERb), cDNA driver (protein, UniProt Q92731 1-530, looked up)
# Estrogen receptor beta: MDIKNSPSSLNSPSSYNCSQSILPLEHGSIYIPSSYVDSHHEYPAMTFYSPAVMNYSIPSNVTNLEGGPGRQTTSPNVLWPTPGHLSPLVVHRQLSHLYAEPQKSPWCEARSLEHTLPVNRETLKRKVSGNRCASPVTGPGSKRDAHFCAVCSDYASGYHYGVWSCEGCKAFFKRSIQGHNDYICPATNQCTIDKNRRKSCQACRLRKCYEVGMVKCGSRRERCGYRLVRRQRSADEQLHCAGKAKRSGGHAPRVRELLLDALSPEQLVLTLLEAEPPHVLISRPSAPFTEASMMMSLTKLADKELVHMISWAKKIPGFVELSLFDQVRLLESCWMEVLMMGLMWRSIDHPGKLIFAPDLVLDRDEGKCVEGILEIFDMLLATTSRFRELKLQHKEYLCVKAMILLNSSMYPLVTATQDADSSRKLAHLLNAVTDALVWVIAKSGISSQQQSMRLANLLMLLSHVRHASNKGMEHLLNMKCKNVVPVYDLLLEMLNAHVLRGCKSSITGSECSPAEDSKSKEGSQNPQSQ
# Assays:
# hMDR1 promoter = test: NHR-promoter luciferase screen, hMDR1 promoter; assay type: cell-based, human; conditions: for Luc. act., normalized to lacZ / Normalized Luc. act., normalized to control: MDR1 promoter, HR/ligand component; for hMDR1 promoter reporter activity: transcription factor +/- ligand, control = 1.00
# Procedure, shortened: (§1)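 CV-1 cells were co-transfected with 50 ng NHR (homodimer or NHR/RXR heterodimer), 100 ng promoter-luciferase construct and 50 ng LacZ. Luciferase was normalized to LacZ and to a no-NHR/no-ligand control.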
# SREBP1c promoter = test: NHR-promoter luciferase screen, SREBP1c promoter; assay type: cell-based, mouse; conditions: for Luc. act., normalized to lacZ / Normalized Luc. act., normalized to control: SREBP1c promoter, HR component without or with ligand; for mSREBP1-c promoter reporter activity: transcription factor +/- ligand, control = 1.00
# Procedure, shortened: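 CV-1 cells co-transfected with 50 ng NHR (homodimer or NHR/RXR heterodimer), 100 ng promoter-luciferase and 50 ng LacZ. Luciferase read at 48 h, normalised to LacZ and to a no-NHR/no-ligand control.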
# hMyoD promoter = test: NHR-promoter luciferase screen, hMyoD promoter; assay type: cell-based, human; conditions: for Luc. act., normalized to lacZ / Normalized Luc. act., normalized to control: MyoD promoter reporter, co-transfected HR, without or with its ligand; for Normalized Luc. act., normalized to control: relative to control; for luciferase activity normalized to lacZ activity and to a control, hMyoD: hMyoD promoter-luciferase, CV-1 cells, NHR +/- ligand, control = 1.00
# Procedure, shortened: as §1
Molecule,"Luc. act., normalized to lacZ (hMDR1 promoter)","Normalized Luc. act., normalized to control (hMDR1 promoter)",hMDR1 promoter reporter activity (hMDR1 promoter),"Luc. act., normalized to lacZ (SREBP1c promoter)","Normalized Luc. act., normalized to control (SREBP1c promoter)",mSREBP1-c promoter reporter activity (SREBP1c promoter),"Luc. act., normalized to lacZ (hMyoD promoter)","Normalized Luc. act., normalized to control (hMyoD promoter)","luciferase activity normalized to lacZ activity and to a control, hMyoD (hMyoD promoter)"
B1,0.3,0.9,0.92,205.9,0.6,0.64,44.8,0.7,0.71
B2,0.2,0.8,0.79,406.7,1.3,1.26,129.6,2.0,2.05
B3,0.4,1.4,1.36,230.3,0.7,0.71,35.6,0.6,0.56
B4,0.1,0.3,0.34,223.2,0.7,0.69,37.1,0.6,0.59
B5,0.3,1.0,1.01,455.6,1.4,1.41,60.9,1.0,0.96
B6,0.4,1.2,1.20,347.9,1.1,1.08,164.8,2.6,2.60
B7,0.3,1.1,1.06,249.2,0.8,0.77,50.6,0.8,0.80
